According to patent US10857209B2, “Lysosomal acid lipase and PPAR gamma ligands as immune therapies for cancer treatment” (Indiana University Research and Technology Corporation, priority 2016, dated 2020):

B1: hLAL: human lysosomal acid lipase expressed from a doxycycline-controlled tissue-specific transgene in lal−/− mice; never administered as a protein (protein)
chain: GPKPVVFLQHGLLADSSNWVTNLANSSLGFILADAGFDVWMGNSRGNTWSRKHKTLSVSQDEFWAFSYDEMAKYDLPASINFILNKTGQEQVYYVGHSQGTTIGFIAFSQIPELAKRIKMFFALGPVASVAFCTSPMAKLGRLPDHLIKDLFGDKEFLPQSAFLKWLGTHVCTHVILKELCGNLCFLLCGFNERNLNMSRVDVYTTHSPAGTSVQNMLHWSQAVKFQKFQAFDWGSSAKNYFHYNQSYPPTYNVKDMLVPTAVWSGGHDWLADVYDVNILLTQITNLVFHESIPEWEHLDFIWGLDAPWRLYNKIINLMRKYQ
modifications: left off: small tags and cut ends
notes: human lysosomal acid lipase expressed from a doxycycline-controlled tissue-specific transgene in lal−/− mice; never administered as a protein

How the values were obtained:
Lin− cells = test: Differentiation of bone marrow Lin− cells into Ly6G+CD11b+ cells; assay type: cell-based, mouse; conditions: lal−/− Lin− cells; 10 μmol/L, 5 days; vs ethanol
Procedure: Lineage-negative (Lin−) cells were isolated from the bone marrow by removing blood lineage marker-positive cells with an immunomagnetic microbead technique. Briefly, bone marrow cells were first incubated with a cocktail of biotin-conjugated antibodies against lineage specific antigens: CD11b, GR-1, B220, TER-119, and CD3ε (Mouse Lineage Panel Kit, BD Pharmingen, San Diego, Calif., USA) at 4° C. for 15 minutes. After washed with PBS, cells were then incubated with anti-biotin microbeads at 4° C. for another 15 minutes. Subsequently, cells were subjected to magnetic bead sorting according to the manufacturer's instructions (Miltenyi Biotec.). The resulting Lin− cells were cultured in RPMI1640 with 10% FBS. Five days later, Ly6G^+CD11b^+ cells derived from Lin− cells were analyzed by flow cytometry analysis.

[1] = tested on: pulmonary endothelial cells (ECs); test: In vitro BALF treatment of pulmonary endothelial cells (proliferation, wound healing); assay type: cell-based, mouse
Procedure: ECs were isolated from lal^+/+ lungs and cultured in vitro. Briefly, the mouse was anesthetized and 1 mL collagenase A (2 mg/mL, Roche, Indianapolis, Ind., USA) was infused into the lung through the trachea. The lung was removed and then incubated with 10 mL collagenase A at 37° C. for 30 minutes. After the incubation, the resulting cell suspension was filtered through a 40 μm strainer and centrifuged for 5 minutes at 1,500 rpm. After removal of the supernatant, the cell pellet was subjected to magnetic bead sorting using anti-CD31 microbeads (Miltenyi Biotec., Auburn, Calif., USA) according to the manufacturer's protocol. The resulting cells were plated onto gelatin-coated (Sigma-Aldrich) 6-well plates and maintained in DMEM supplemented with endothelial cell growth supplement, heparin, L-Glutamine (Sigma-Aldrich), FBS, and Antibiotic-Antimycotic (Gibco).
To examine the effect of BALF on EC proliferation, 5×10^4 ECs were seeded into a well of 24-well plates in 250 μL DMEM supplemented with 10% FBS, and then treated with 250 μL BALF harvested from lal^+/+, lal^−/− or CCSP-Tg/KO triple mice. Seventy-two hours later, the number of ECs was counted.
To analyze the effects of BALF on tumor cell or EC migration, in vitro wound healing assays were performed. […]

| Molecule | Ly6G+CD11b+ cells derived from Lin− cells (Lin− cells) | EC migration (wound healing) ([1]; BALF from doxycycline-treated CCSP-Tg/KO mice, 15 hours, mitomycin C) | EC proliferation ([1]; lal+/+ ECs with BALF from doxycycline-treated CCSP-Tg/KO mice, 72 hours) |
| --- | --- | --- | --- |
| 9-hydroxyoctadecadienoic acid [9-HODE] | fewer Ly6G^+CD11b^+ cells |  |  |
| B1 |  | decreased EC migration | decreased EC proliferation |
